# ± gives the uncertainty stated by the source.
# Test: self-splicing fitness, log relative to wild type (ln ratio); higher = more splicing; Tetrahymena group I intron in knt gene, E. coli kanamycin selection, DiMSum; sequences stand for … in CUCUCU…GGAGGGAAAAGUUAUCAGGCAUGCACCUGGUAGCUAGUCUUUAAACCAAUAGAUUGCAUCGGUUUAAAAGGCAAGACCGUCAAAUUGCGGGAAAGGGGUCAACAGCCGUUCAGUACCAAGUCUCAGGGGAAACUUUGAGAUGGCCUUGCAAAGGGUAUGGUAAUAAGCUGACGGACAUGGUCCUAACCACGCAGCCAAGUCCUAAGUCAACAGAUCUUCUGUUGAUAUGGAUGCAGUUCACAGACUAAAUGUCGGUCGGGGAAGAUGUAUUCUUCUCAUAAGAUAUAGUCGGACCUCUCCUUAAUGGGAGCUAGCGGAUGAAGUGAUGCAACACUGGAGCCGCUGGGAACUAAUUUGUAUGCGAAAGUAUAUUGAUUAGUUUUGGAGUACUCGUGGUCG
# Summary of the method: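 Six replicate transformations of E. coli BL21(DE3) with a pET-22b(+) library were grown overnight at 37°C or 30°C. The library randomised all eight P1ex-region intron nucleotides, the intron lying in the knt kanamycin-resistance gene, and plates were LB agar with or without 25 μg/mL kanamycin plus 100 μg/mL carbenicillin, 50 μM IPTG and 0.2% rhamnose. Pooled colonies were amplicon-sequenced on an Illumina HiSeq 2500, and fitness is the DiMSum error-weighted combination of wild-type-normalised replicate fold changes, kanamycin versus none.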
sequence,measurement,setting,value
UGAUAGCAAUAUUACGUCCA,self-splicing fitness (ln),30 °C,0.015 ± 0.09
same,self-splicing fitness (ln),37 °C,0.154 ± 0.12
UGAUAGCAAUAUUACGUCCU,self-splicing fitness (ln),30 °C,-0.302 ± 0.07
same,self-splicing fitness (ln),37 °C,0.376 ± 0.1
UGAUAGCAAUAUUACGUCGG,self-splicing fitness (ln),30 °C,-1.4 ± 0.12
same,self-splicing fitness (ln),37 °C,-0.72 ± 0.12
UGAUAGCAAUAUUACGUUCG,self-splicing fitness (ln),30 °C,-0.432 ± 0.076
same,self-splicing fitness (ln),37 °C,0.4 ± 0.1
UGCAAGCAAUAUUACGAAGU,self-splicing fitness (ln),30 °C,-3 ± 0.49
UGCAAGCAAUAUUACGAAUC,self-splicing fitness (ln),30 °C,-3.56 ± 0.29
UGCAAGCAAUAUUACGAAUU,self-splicing fitness (ln),30 °C,-2.91 ± 0.14
same,self-splicing fitness (ln),37 °C,-3.01 ± 0.23
UGCAAGCAAUAUUACGACAC,self-splicing fitness (ln),30 °C,-2.23 ± 0.24
same,self-splicing fitness (ln),37 °C,-1.35 ± 0.21
UGCAAGCAAUAUUACGACUU,self-splicing fitness (ln),30 °C,-2.34 ± 0.1
same,self-splicing fitness (ln),37 °C,-0.599 ± 0.11
UGCAAGCAAUAUUACGAGGG,self-splicing fitness (ln),30 °C,-3.56 ± 0.23
same,self-splicing fitness (ln),37 °C,-1.77 ± 0.17
UGCAAGCAAUAUUACGAUAA,self-splicing fitness (ln),30 °C,-0.8 ± 0.1
same,self-splicing fitness (ln),37 °C,-0.087 ± 0.12
UGCAAGCAAUAUUACGAUUC,self-splicing fitness (ln),30 °C,-3.54 ± 0.32
same,self-splicing fitness (ln),37 °C,-1.31 ± 0.21
UGCAAGCAAUAUUACGCCCA,self-splicing fitness (ln),30 °C,-0.543 ± 0.14
same,self-splicing fitness (ln),37 °C,0.796 ± 0.23
UGCAAGCAAUAUUACGCGAU,self-splicing fitness (ln),30 °C,-3.34 ± 0.17
same,self-splicing fitness (ln),37 °C,-2.15 ± 0.2
UGCAAGCAAUAUUACGCGCA,self-splicing fitness (ln),30 °C,-2.17 ± 0.23
same,self-splicing fitness (ln),37 °C,-1.86 ± 0.29
UGCAAGCAAUAUUACGCGUG,self-splicing fitness (ln),30 °C,-3.54 ± 0.14
same,self-splicing fitness (ln),37 °C,-3.15 ± 0.2
UGCAAGCAAUAUUACGGGAC,self-splicing fitness (ln),30 °C,-4 ± 0.37
UGCAAGCAAUAUUACGGGCC,self-splicing fitness (ln),30 °C,-1.31 ± 0.12
same,self-splicing fitness (ln),37 °C,-1.26 ± 0.14
UGCAAGCAAUAUUACGGGUU,self-splicing fitness (ln),30 °C,-2.62 ± 0.095
same,self-splicing fitness (ln),37 °C,-1.23 ± 0.093
UGCAAGCAAUAUUACGGUGG,self-splicing fitness (ln),30 °C,-2.3 ± 0.074
same,self-splicing fitness (ln),37 °C,-1.21 ± 0.085
UGCAAGCAAUAUUACGUAAG,self-splicing fitness (ln),30 °C,-2.75 ± 0.13
same,self-splicing fitness (ln),37 °C,-2.64 ± 0.2
UGCAAGCAAUAUUACGUAAU,self-splicing fitness (ln),30 °C,-1.85 ± 0.089
same,self-splicing fitness (ln),37 °C,-1.86 ± 0.13
UGCAAGCAAUAUUACGUACC,self-splicing fitness (ln),30 °C,-2.18 ± 0.16
same,self-splicing fitness (ln),37 °C,-1.02 ± 0.23
UGCAAGCAAUAUUACGUCCC,self-splicing fitness (ln),30 °C,-1.37 ± 0.28
same,self-splicing fitness (ln),37 °C,-0.65 ± 0.24
UGCAAGCAAUAUUACGUCUC,self-splicing fitness (ln),30 °C,-1.76 ± 0.12
same,self-splicing fitness (ln),37 °C,-2.67 ± 0.25
UGCAAGCAAUAUUACGUCUU,self-splicing fitness (ln),30 °C,-4.52 ± 0.31
same,self-splicing fitness (ln),37 °C,-0.686 ± 0.1
UGCAAGCAAUAUUACGUGUA,self-splicing fitness (ln),30 °C,-1.96 ± 0.073
same,self-splicing fitness (ln),37 °C,-1.35 ± 0.084
UGCAAGCAAUAUUACGUUGA,self-splicing fitness (ln),30 °C,-2.47 ± 0.1
same,self-splicing fitness (ln),37 °C,-1.32 ± 0.11
UGCAAGCAAUAUUACGUUGC,self-splicing fitness (ln),30 °C,-3.3 ± 0.31
same,self-splicing fitness (ln),37 °C,-3.31 ± 0.39
UGCCAGCAAUAUUACGACCA,self-splicing fitness (ln),30 °C,0.429 ± 0.1
same,self-splicing fitness (ln),37 °C,0.0668 ± 0.13
UGCCAGCAAUAUUACGAGAG,self-splicing fitness (ln),30 °C,-4.28 ± 0.21
same,self-splicing fitness (ln),37 °C,-2.56 ± 0.14
UGCCAGCAAUAUUACGAGCG,self-splicing fitness (ln),30 °C,-0.919 ± 0.066
same,self-splicing fitness (ln),37 °C,-0.309 ± 0.079
UGCCAGCAAUAUUACGAGGA,self-splicing fitness (ln),30 °C,-1.49 ± 0.17
same,self-splicing fitness (ln),37 °C,-2.37 ± 0.22
UGCCAGCAAUAUUACGCGCA,self-splicing fitness (ln),30 °C,-2.51 ± 0.28
same,self-splicing fitness (ln),37 °C,-1.06 ± 0.16
UGCCAGCAAUAUUACGCGCC,self-splicing fitness (ln),30 °C,-1.15 ± 0.17
same,self-splicing fitness (ln),37 °C,-0.705 ± 0.23
UGCCAGCAAUAUUACGCUGA,self-splicing fitness (ln),30 °C,-3.01 ± 0.19
same,self-splicing fitness (ln),37 °C,-2.21 ± 0.21
UGCCAGCAAUAUUACGCUUU,self-splicing fitness (ln),30 °C,-2.03 ± 0.079
same,self-splicing fitness (ln),37 °C,-1.76 ± 0.074
UGCCAGCAAUAUUACGGACC,self-splicing fitness (ln),30 °C,-0.869 ± 0.2
same,self-splicing fitness (ln),37 °C,0.326 ± 0.23
UGCCAGCAAUAUUACGGACG,self-splicing fitness (ln),30 °C,-0.337 ± 0.06
same,self-splicing fitness (ln),37 °C,-0.0244 ± 0.076
UGCCAGCAAUAUUACGGCCA,self-splicing fitness (ln),30 °C,-0.44 ± 0.076
same,self-splicing fitness (ln),37 °C,-0.0136 ± 0.086
UGCCAGCAAUAUUACGGCCU,self-splicing fitness (ln),30 °C,-0.579 ± 0.1
same,self-splicing fitness (ln),37 °C,-0.213 ± 0.12
UGCCAGCAAUAUUACGGGGA,self-splicing fitness (ln),30 °C,-1.8 ± 0.087
same,self-splicing fitness (ln),37 °C,-0.863 ± 0.11
UGCCAGCAAUAUUACGGGUC,self-splicing fitness (ln),30 °C,-3.53 ± 0.23
same,self-splicing fitness (ln),37 °C,-2.34 ± 0.18
UGCCAGCAAUAUUACGUAAG,self-splicing fitness (ln),30 °C,-2 ± 0.067
same,self-splicing fitness (ln),37 °C,-1.24 ± 0.083
UGCCAGCAAUAUUACGUAGA,self-splicing fitness (ln),30 °C,-1.45 ± 0.056
same,self-splicing fitness (ln),37 °C,-0.504 ± 0.065
UGCCAGCAAUAUUACGUAGC,self-splicing fitness (ln),30 °C,-3.9 ± 0.37
same,self-splicing fitness (ln),37 °C,-1.64 ± 0.17
UGCCAGCAAUAUUACGUCCU,self-splicing fitness (ln),30 °C,-1.6 ± 0.14
same,self-splicing fitness (ln),37 °C,0.244 ± 0.14
UGCCAGCAAUAUUACGUGAG,self-splicing fitness (ln),30 °C,-2.12 ± 0.11
same,self-splicing fitness (ln),37 °C,-0.54 ± 0.097
UGCCAGCAAUAUUACGUGUU,self-splicing fitness (ln),30 °C,-2.74 ± 0.1
same,self-splicing fitness (ln),37 °C,-1.67 ± 0.075
UGCCAGCAAUAUUACGUUAG,self-splicing fitness (ln),30 °C,-2.26 ± 0.12
same,self-splicing fitness (ln),37 °C,-0.975 ± 0.13
UGCGAGCAAUAUUACGAGAG,self-splicing fitness (ln),30 °C,-2.89 ± 0.15
UGCGAGCAAUAUUACGAGGC,self-splicing fitness (ln),30 °C,-2.74 ± 0.23
same,self-splicing fitness (ln),37 °C,-2 ± 0.23
UGCGAGCAAUAUUACGCGUC,self-splicing fitness (ln),30 °C,-2.18 ± 0.26
UGCGAGCAAUAUUACGCUAC,self-splicing fitness (ln),37 °C,-0.55 ± 0.46
UGCGAGCAAUAUUACGGAUU,self-splicing fitness (ln),37 °C,-3.08 ± 0.4
UGCGAGCAAUAUUACGGGAC,self-splicing fitness (ln),30 °C,-3.69 ± 0.39
same,self-splicing fitness (ln),37 °C,-1.88 ± 0.23
UGCGAGCAAUAUUACGGGAU,self-splicing fitness (ln),30 °C,-3.78 ± 0.35
same,self-splicing fitness (ln),37 °C,-2.21 ± 0.28
UGCGAGCAAUAUUACGGGUG,self-splicing fitness (ln),30 °C,-1.72 ± 0.11
same,self-splicing fitness (ln),37 °C,-1.49 ± 0.12
UGCGAGCAAUAUUACGGUAC,self-splicing fitness (ln),30 °C,-4.18 ± 0.3
same,self-splicing fitness (ln),37 °C,-3.26 ± 0.23
UGCGAGCAAUAUUACGGUAG,self-splicing fitness (ln),30 °C,-3.36 ± 0.24
same,self-splicing fitness (ln),37 °C,-3.01 ± 0.32
UGCGAGCAAUAUUACGUAUU,self-splicing fitness (ln),30 °C,-3.07 ± 0.17
same,self-splicing fitness (ln),37 °C,-2.58 ± 0.2
UGCGAGCAAUAUUACGUCUA,self-splicing fitness (ln),30 °C,-0.974 ± 0.15
same,self-splicing fitness (ln),37 °C,-0.453 ± 0.17
UGCGAGCAAUAUUACGUGAU,self-splicing fitness (ln),30 °C,-2.47 ± 0.23
same,self-splicing fitness (ln),37 °C,-2.09 ± 0.4
UGCUAGCAAUAUUACGAAUA,self-splicing fitness (ln),30 °C,-1.27 ± 0.13
same,self-splicing fitness (ln),37 °C,-1.16 ± 0.12
UGCUAGCAAUAUUACGACCU,self-splicing fitness (ln),30 °C,-0.548 ± 0.088
same,self-splicing fitness (ln),37 °C,-0.345 ± 0.1
UGCUAGCAAUAUUACGACUG,self-splicing fitness (ln),30 °C,0.165 ± 0.081
same,self-splicing fitness (ln),37 °C,0.259 ± 0.11
UGCUAGCAAUAUUACGAGAG,self-splicing fitness (ln),30 °C,-2.79 ± 0.22
same,self-splicing fitness (ln),37 °C,-2.13 ± 0.23
UGCUAGCAAUAUUACGAUAA,self-splicing fitness (ln),30 °C,-1.64 ± 0.15
same,self-splicing fitness (ln),37 °C,-0.358 ± 0.14
UGCUAGCAAUAUUACGAUUC,self-splicing fitness (ln),37 °C,-2.33 ± 0.49
UGCUAGCAAUAUUACGCACG,self-splicing fitness (ln),30 °C,-1.27 ± 0.12
same,self-splicing fitness (ln),37 °C,-1.18 ± 0.16
UGCUAGCAAUAUUACGCCAA,self-splicing fitness (ln),37 °C,0.0147 ± 0.24
UGCUAGCAAUAUUACGCUCC,self-splicing fitness (ln),30 °C,-2.06 ± 0.23
same,self-splicing fitness (ln),37 °C,-0.757 ± 0.24
UGCUAGCAAUAUUACGGAUA,self-splicing fitness (ln),30 °C,-1.44 ± 0.11
same,self-splicing fitness (ln),37 °C,-1.1 ± 0.13
UGCUAGCAAUAUUACGGCAU,self-splicing fitness (ln),30 °C,-3.65 ± 0.28
same,self-splicing fitness (ln),37 °C,-2.37 ± 0.31
UGCUAGCAAUAUUACGGCGU,self-splicing fitness (ln),30 °C,-3.57 ± 0.22
same,self-splicing fitness (ln),37 °C,-1.89 ± 0.17
UGCUAGCAAUAUUACGGCUA,self-splicing fitness (ln),30 °C,-0.795 ± 0.17
same,self-splicing fitness (ln),37 °C,0.345 ± 0.15
UGCUAGCAAUAUUACGGGCC,self-splicing fitness (ln),30 °C,-1.55 ± 0.14
same,self-splicing fitness (ln),37 °C,-1.33 ± 0.15
UGCUAGCAAUAUUACGGGCG,self-splicing fitness (ln),30 °C,-1.45 ± 0.1
same,self-splicing fitness (ln),37 °C,-1.82 ± 0.11
UGCUAGCAAUAUUACGGGGA,self-splicing fitness (ln),30 °C,-0.989 ± 0.14
same,self-splicing fitness (ln),37 °C,0.0335 ± 0.14

# Source: the supplement of paper PMC7877785
